According to patent US20190177416A1 (NANOMAB TECHNOLOGY, published 2019):
Numbering of substitutions follows the chain as printed. Each block holds one binder with its values, some of them ahead of it.

Experiments:
[1] = target: T1, human PD-L1 protein (coated antigen) (human, UniProt Q9NZQ7 19-238, limits assumed); test: PE-ELISA, crude extract on coated PD-L1
T1 construct: Construct not described; also called PD-L1 antigen; antigenic protein PD-L1
Procedure: (1) From the cell culture dishes containing phage after 3-4 rounds of screening in Example 2, 1000 individual colonies were selected and inoculated into TB medium containing 100 μg/ml of ampicillin (1 liter of TB medium contains 2.3 g of potassium dihydrogen phosphate, 12.52 g of dipotassium hydrogen phosphate, 12 g of peptone, 24 g of yeast extract, 4 ml of glycerol), after growth to log phase, add a final concentration of […] of IPTG, culture at 28° C. overnight. (2) The crude antibody was obtained by the infiltration method, and the antibody was transferred to an antigen-coated ELISA plate and placed at room temperature for 1 hour. (3) Unbound antibody was washed away with PBST, and a mouse anti-HA tag antibody (anti-mouse anti-HA antibody, purchased from Beijing Kangwei Century Biotechnology Co., Ltd.) was added and placed at room temperature for 1 hour. (4) Unbound antibody was washed away with PBST, and anti-mouse alkaline phosphatase conjugate (goat anti-mouse alkaline phosphatase-labeled antibody, purchased from Amytech Co., Ltd.) was added and placed at room temperature for 1 hour. (5) Wash the unbound antibody with PBST, add alkaline phosphatase coloring solution, and read the absorbance at 405 nm on an ELISA apparatus. (6) When the OD value of the sample well is more than 3 times the OD value of the control well (Ratio+/−>3), it is judged as a positive clone hole. (7) The bacteria of the positive clone well were shaken in a LB liquid containing 100 μg per ml to extract a plasmid and perform sequencing.

[2] = target: T1, human PD-L1 protein (coated antigen); test: ELISA, purified nanobody 10 ug/mL on coated PD-L1, anti-HA detection
Procedure: (§1) (1) Coated antigenic proteins PD-L1 and PD-L2: 0.5 μg per well (5 μg/mL, 100 μL), packaged NaHCO₃ (100 mM, pH8.2) was used as a blank control and overnight at 4° C. (2) Wash the cells three times with PBST the next day, add 200 μL of 1% BSA to block at room temperature for 2 hours. (3) Each purified nanobody was diluted to 10 μg/mL, and 100 pt of each of the purified nanobodies was incubated with the coated PD-L1, PD-L2 and the blank control group, and reacted at room temperature for 1 hour. (4) Unbound antibody was washed away with PBST, and 100 μL of mouse anti-HA tag antibody (1:2000 dilution) was added and placed at room temperature for 1 hour. (5) Unbound antibody was washed away with PBST, and anti-mouse alkaline phosphatase conjugate (1:2000 dilution) was added and placed at room temperature for 1 hour. (6) Wash the unbound antibody with PBST, add alkaline phosphatase coloring solution, and read the absorbance at 405 nm on an ELISA apparatus. The specificity of the nanobody was judged based on the absorption value.

[3] = target: T2, PD-L2 (coated antigenic protein) (UniProt Q9BQ51 20-220, limits assumed); test: ELISA, purified nanobody 10 ug/mL on coated PD-L2, anti-HA detection
T2 sequence (looked up): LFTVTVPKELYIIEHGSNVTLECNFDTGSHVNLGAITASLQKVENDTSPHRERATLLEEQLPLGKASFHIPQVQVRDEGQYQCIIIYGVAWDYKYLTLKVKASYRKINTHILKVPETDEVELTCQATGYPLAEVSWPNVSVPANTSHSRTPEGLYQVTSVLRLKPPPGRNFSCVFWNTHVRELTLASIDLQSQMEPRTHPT
Procedure: as §1

[4] = target: T1, human PD-L1 protein (coated antigen); test: ELISA, purified nanobody 10 ug/mL, coated PD-L1 against coated PD-L2
Procedure: as §1

[5] = target: T1, human PD-L1 protein (coated antigen); test: PE-ELISA on coated PD-L1

T1 sequence (Q9NZQ7 19-238 limits assumed): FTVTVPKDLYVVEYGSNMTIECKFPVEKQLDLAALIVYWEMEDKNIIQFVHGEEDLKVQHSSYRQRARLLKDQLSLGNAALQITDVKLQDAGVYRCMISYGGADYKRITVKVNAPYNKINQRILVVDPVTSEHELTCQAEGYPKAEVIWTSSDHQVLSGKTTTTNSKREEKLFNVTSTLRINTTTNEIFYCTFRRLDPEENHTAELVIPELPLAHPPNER

OD ratio (experimental group (A405 nm)/control group (A405 nm)) [1]: > 20
B1: SEQ ID NO 74 (VHH)
VHH: QVQLQESGGGSVQAGGSLRLSCAASGFTGSIYAMSWVRQAPGKGLEWVSTISSSGGRRFYADSVKGRFTISRDNAKNTLYLQLNSLKTEDTAMYYCARCSDIYCDNGASYRGQGTQVTVSS
notes: pMECS-expressed; also called VHH numbered 74

binding result [5]: binds
B3: SEQ ID NO 142 (VHH)
VHH: QVQLQESGGGSVQTGGSLRLSCAVSRYSASNNVIKWMGWFRQAPGKEREGVAALYTSGGNTYYADSVKGRFTISRDYSENTVSLQMNNLKPEDTGMYYCAATVGTVLAGPLSARKYNYWGQGTQVTVSS
notes: pMECS-expressed; also called VHH numbered 142

binding result [5]: binds
B4: SEQ ID NO 141 (VHH)
VHH: QVQLQESGGGSVQAGGSLRLSCTAPGFTSNTCAMAWFRQAPGKEREFVSSMSTVGSTRFADSVKGRFTISKDEAKDTVYLQMNSLKPEDTAMYFCKTYACRECTGRYCRTAPDAWGQGTQVTVSS
notes: pMECS-expressed; also called VHH numbered 141

binding result [5]: binds
B5: SEQ ID NO 143 (VHH)
VHH: B4 VHH with F37Y, M51I, G55R, S56T, R58A, F59Y, D76A, T97S, E102D, T104I
notes: pMECS-expressed; also called VHH numbered 143

OD ratio (experimental group (A405 nm)/control group (A405 nm)) [1]: > 20
B6: SEQ ID NO 34 (VHH)
VHH: QVQLQESGGGSVQAGGSLRLSCAASGYTRSLYCMGWFRQAPGREREGVAHVYTGDGSPYYADSVKGRFTISQDNGESTLYLQMNNLKPEDTAMYYCAAGTSALSRPYGPISYGYWYWGQGTQVTVSS
notes: pMECS-expressed; also called VHH numbered 34

OD ratio (experimental group (A405 nm)/control group (A405 nm)) [1]: > 20
ELISA absorbance (A405 nm) [2]: 2.99 A405 nm
ELISA absorbance (A405 nm) [3]: 0.125 A405 nm
OD ratio (PD-L1/PD-L2) [4]: 23.9
B7: SEQ ID NO 12 (VHH)
VHH: QVQLQESGGGSVQAGGSLRLSCAASGYTRSSHCMVWFRQAPGKEREGVALIYTGSGSTYYADSVKGRFTISQDNAKKTLYLQMNSLKPEDTAMYYCAAGTSSSSCPGLLGPPRYYNWGQGTQVTVSS
notes: pMECS-expressed; also called anti-PD-L1 nanobody No. 12; VHH numbered 12

The remaining lines, values behind:

B2: SEQ ID NO 2 (VHH)
VHH: B3 VHH with T14A, A101T
notes: pMECS-expressed; also called anti-PD-L1 nanobody No. 2; VHH numbered 2
OD ratio (experimental group (A405 nm)/control group (A405 nm)) [1]: > 20
ELISA absorbance (A405 nm) [2]: 3.63 A405 nm
ELISA absorbance (A405 nm) [3]: 0.114 A405 nm
OD ratio (PD-L1/PD-L2) [4]: 31.8

B8: SEQ ID NO 3 (VHH)
VHH: QVQLQESGGGSVQTGGSLRLSCAASTSLYSYNYMAWFSQAPGKGREGVAAVYVGDGRPYYADSVKGRFTISLDSAKNAVYLQMNSLKPEDTAMYYCAAAPGPLSHNYWYTSANYDYWGQGTQVTVSS
notes: pMECS-expressed; also called anti-PD-L1 nanobody No. 3; VHH numbered 3
OD ratio (experimental group (A405 nm)/control group (A405 nm)) [1]: > 20
ELISA absorbance (A405 nm) [2]: 2.36 A405 nm
ELISA absorbance (A405 nm) [3]: 0.112 A405 nm
OD ratio (PD-L1/PD-L2) [4]: 21

B9: SEQ ID NO 5 (VHH)
VHH: B8 VHH with L28I, Y31N, V53I, G54D, A78T, S85G, H105R
notes: pMECS-expressed; also called anti-PD-L1 nanobody No. 5; VHH numbered 5
OD ratio (experimental group (A405 nm)/control group (A405 nm)) [1]: > 20
ELISA absorbance (A405 nm) [2]: 3.38 A405 nm
ELISA absorbance (A405 nm) [3]: 0.128 A405 nm
OD ratio (PD-L1/PD-L2) [4]: 26.4

B10: SEQ ID NO 4 (VHH)
VHH: B8 VHH with T26P, L28I, Y31A, V53I, A78T, S104G
notes: pMECS-expressed; also called anti-PD-L1 nanobody No. 4; VHH numbered 4
OD ratio (experimental group (A405 nm)/control group (A405 nm)) [1]: > 20
ELISA absorbance (A405 nm) [2]: 3.51 A405 nm
ELISA absorbance (A405 nm) [3]: 0.137 A405 nm
OD ratio (PD-L1/PD-L2) [4]: 25.6

B11: SEQ ID NO 7 (VHH)
VHH: B8 VHH with A24C, L28I, Y31T, V53I, A78T, H105R
notes: pMECS-expressed; also called anti-PD-L1 nanobody No. 7; VHH numbered 7
OD ratio (experimental group (A405 nm)/control group (A405 nm)) [1]: > 20
ELISA absorbance (A405 nm) [2]: 3.51 A405 nm
ELISA absorbance (A405 nm) [3]: 0.119 A405 nm
OD ratio (PD-L1/PD-L2) [4]: 29.5

B12: SEQ ID NO 8 (VHH)
VHH: QVQLQESGGDSVQAGGSLRLACKVPGFTSNTCAMAWFRQAPGKEREFVSSISTGGTTGYAESAKGRFTLSKDEAKDTVYLQMNSLKPEDTAMYFCKSYACRTCIGRYCRTAPDAWGQGTQVTVSS
notes: pMECS-expressed; also called anti-PD-L1 nanobody No. 8; VHH numbered 8
OD ratio (experimental group (A405 nm)/control group (A405 nm)) [1]: > 20
ELISA absorbance (A405 nm) [2]: 3.37 A405 nm
ELISA absorbance (A405 nm) [3]: 0.133 A405 nm
OD ratio (PD-L1/PD-L2) [4]: 25.3
